The text below walks through data of the RNAGym collection of RNA variant scans (doi:10.7554/elife.80360).

First the molecules themselves.
B1: HDV Ribozyme (parent)
chain: GGCCGGCAUGGUCCCAGCCUCCUCGCUGGCGCCGGCUGGGCAACAUUCCGAGGGGACCGUCCCCUCGGUAAUGGCGAAUGGGACCCA

In this series the parent is B1. The series is described as follows: self-cleavage, relative activity (ratio to wild type); higher = more cleavage; co-transcriptional.
Turning to C61U G80A, the self-cleavage turned out to be 0.242. With C61U G80U, the self-cleavage was determined as 0.217. With U60C G80C, the self-cleavage came to 0.125. For U60G U65A the value was 0.95. To U60G U65C belongs 1.17; to C61G U65C, 1.24. As to C61U C66G, the self-cleavage amounted to 0.529. As to C62U C86U, the self-cleavage is 0.845.

For the variant C62G A83U, the self-cleavage came out at 0.17. To C62G A83G belongs 0.404. For C63A A71C the value was 0.525; for U60C G67U, 1.03.

Consider U60C G74C, for which the self-cleavage is 0.217. Turning to C61U A87U, the self-cleavage is 0.959. Regarding C63A G81A, the self-cleavage is 0.446. To U60C C64A belongs 1.13; to C61A A77G, 1.03. On to C61A A77U, for which the self-cleavage was 0.389.

Consider U60G U72A, for which the self-cleavage was found to be 0.458. To C61A U79C belongs 0.506; to U60C U79G, 0.554. As for U60C U79A, the self-cleavage was 1.23.

Regarding C61G G74C, the self-cleavage is 0.225. In the case of C61G G74A, the self-cleavage was 0.429.

For the variant C62G C86G, the self-cleavage worked out at 1.14.

Regarding C62G A77U, the self-cleavage stood at 0.388. Turning to C62U G76C, the self-cleavage was 0.941. Turning to C62U G67C, the self-cleavage was found to be 0.923. For the variant C62U G67U, the self-cleavage came to 1.02. With C61G C84G, the self-cleavage was determined as 0.386. For the variant C61G C84U, the self-cleavage worked out at 0.544.

As to C62U A70G, the self-cleavage was 1.09. As for C63A A83C, the self-cleavage stood at 0.271. For the variant C62G A78C, the self-cleavage stood at 0. As for C61A U69C, the self-cleavage was determined as 0.906. To C62A G73U belongs 0.212; to C61G G80C, 0.348.

Turning to C61G G80U, the self-cleavage is 0.275.

In the case of C61G G76U, the self-cleavage was 1.16.

As for C61A G82C, the self-cleavage turned out to be 0.228. Turning to C61A A78G, the self-cleavage was determined as 0.678.

In the case of C62A U65A, the self-cleavage worked out at 0.332.

For C62A U65C, the self-cleavage was found to be 0.969. On to C63G, for which the self-cleavage is 0.764. As for C63A, the self-cleavage worked out at 0.973.

As to U60C C66U, the self-cleavage was 0.997. Turning to U60G G67U, the self-cleavage turned out to be 1.07. For the variant C61G A77U, the self-cleavage was determined as 0.394. For the variant C62U U69C, the self-cleavage worked out at 1.07. As to C62U G73A, the self-cleavage worked out at 0.808.

As to C62U G73U, the self-cleavage turned out to be 0.472.

Turning to C61U A78U, the self-cleavage came to 0.326.

With C62G G80C, the self-cleavage worked out at 0.0791.

Consider U60C C85U, for which the self-cleavage came out at 0.989. U60C C85A: the self-cleavage was found to be 0.712. For the variant C63A G80U, the self-cleavage was 0.2.

Turning to C61G U79G, the self-cleavage came out at 0.437. Turning to C62U G82C, the self-cleavage is 0.242.

Consider C62U G82A, for which the self-cleavage was 0.338. Consider C63A C86U, for which the self-cleavage amounted to 0.784. For C63A C86G the value was 1.02; for C61G A70U, 1.04; for C61A G74C, 0.315. In the case of C63A C75G, the self-cleavage came out at 0.201. For C63A C64A the value was 0.665; for C61U G82U, 0.518; for C61G A78G, 0.831. As to C61A C86A, the self-cleavage amounted to 0.897. In the case of C61A C86U, the self-cleavage was found to be 1.01. For the variant C62A A87G, the self-cleavage stood at 0.867. Consider C62A A87C, for which the self-cleavage turned out to be 0.946. For the variant C61U A70U, the self-cleavage came to 1.02.

C62U U65C: the self-cleavage was 0.988. Consider C62U U65G, for which the self-cleavage worked out at 0.631. C62A G68A: the self-cleavage came to 0.842. For C62A G68U, the self-cleavage came to 0.939. Take C63A A77G: the self-cleavage came to 0.734.

As for C61U G68A, the self-cleavage is 0.727. On to C61A G73C, for which the self-cleavage is 0.415.

Regarding U60G U69C, the self-cleavage amounted to 1.09. On to C62G C66A, for which the self-cleavage stood at 0.323.

For C62U U79A, the self-cleavage came out at 0.95.

With C61G C62A, the self-cleavage came out at 0.958. With C61G C62U, the self-cleavage is 0.815. Take C62A G81U: the self-cleavage worked out at 0.266. For C62U A87C the value was 1.11; for C62U A87G, 1.05. To C61A U72G belongs 0.554; to C61A U72C, 0.686.

For C61G A83G, the self-cleavage was 0.567. Consider C61A C85A, for which the self-cleavage was 1.09.

Consider C61A C85U, for which the self-cleavage is 1.05.

On to C62G G67U, for which the self-cleavage is 0.423.

Regarding C61A A83C, the self-cleavage amounted to 0.342. For the variant U60C G73U, the self-cleavage was found to be 0.352.

Turning to U60C G73C, the self-cleavage was determined as 0.465. For C62A G82U, the self-cleavage amounted to 0.295. On to C62A G82C, for which the self-cleavage amounted to 0.271.

U60G C66A: the self-cleavage came to 0.831. Turning to C61G G67C, the self-cleavage came to 0.945.

As to C61G G67U, the self-cleavage is 0.649. For C61G C75A the value was 0.166; for C61G C75G, 0.113; for C61U U79G, 1.15. Take C61G U69C: the self-cleavage is 0.96. Turning to C62U A77C, the self-cleavage came out at 0.491. As for C63A G82C, the self-cleavage was 0.122. As for C61G G68C, the self-cleavage is 0.665.

On to C61G C66U, for which the self-cleavage worked out at 1.08. In the case of C63A C84U, the self-cleavage is 0.717. For C61U C64G the value was 0.308; for C61A C64U, 0.997. For C63A A70C the value was 0.883; for C63A A70U, 0.812.

As to C63A A70G, the self-cleavage was 0.767. To C63A U79G belongs 0.682; to C62A G76U, 1.08; to C61G G73A, 0.475.

Consider C61U A71C, for which the self-cleavage was 0.746. In the case of C62A A71U, the self-cleavage was found to be 0.892. Regarding C61U C85U, the self-cleavage came to 0.917.

Consider C62G G82C, for which the self-cleavage stood at 0.204.

Regarding C62G U65A, the self-cleavage was determined as 0.166. Take C62A C66U: the self-cleavage was 0.597. As to C61A C75A, the self-cleavage is 0.136. U60G G81U: the self-cleavage came to 0.123.

Take U60G G76U: the self-cleavage was 0.969.

Take C62G G76U: the self-cleavage was found to be 1.03. With C62G G76C, the self-cleavage is 0.937. As to C61U A77G, the self-cleavage came out at 1.12. With C61U G74C, the self-cleavage was determined as 0.253. For C61U G74A, the self-cleavage amounted to 0.463. As to C62A A70C, the self-cleavage is 0.886. On to C62A A70G, for which the self-cleavage came to 0.682. On to C62A C75U, for which the self-cleavage worked out at 0.108. In the case of U60G U79A, the self-cleavage worked out at 0.665. Regarding C62G U69A, the self-cleavage was 1.04. Take C62G U69G: the self-cleavage came out at 0.804. U60C G81U: the self-cleavage came to 0.424. For the variant C62A C63A, the self-cleavage was 1.03. For U60G G73C the value was 0.323; for U60G G73U, 0.298. For the variant U60C G82U, the self-cleavage turned out to be 0.495. To C63A G68C belongs 0.495; to C61A A70G, 0.812; to C62G C64U, 0.485. As to C62G C64A, the self-cleavage came to 0.608. As to C62G C64G, the self-cleavage was determined as 0.427.

Take U60G C61G: the self-cleavage was determined as 0.872.

On to C62U C66U, for which the self-cleavage was determined as 0.953.

As to C61U A83U, the self-cleavage came to 0.456. Turning to C61A C62G, the self-cleavage came out at 0.892. Turning to U60G A77G, the self-cleavage turned out to be 1.09. To C62A A77C belongs 0.623; to C61A G68U, 0.623.

Take U60C U72C: the self-cleavage was found to be 0.539.

With C62U, the self-cleavage turned out to be 0.994. To C62A belongs 0.979. On to C62G, for which the self-cleavage was 0.695.

As for C62G G81A, the self-cleavage was 0.299. C61U G67C: the self-cleavage turned out to be 0.78. Regarding C61U G67A, the self-cleavage was 0.562. In the case of C62A C85G, the self-cleavage is 0.88. Consider C61G A71C, for which the self-cleavage is 0.787. With C62G U79C, the self-cleavage amounted to 0.529.

In the case of C62U G68U, the self-cleavage turned out to be 0.68.

As to C62U G68C, the self-cleavage came out at 0.818.
